{"source": "paper PMC8545111", "about": "“Molecular Basis of the Versatile Regulatory Mechanism of HtrA-Type Protease AlgW from Pseudomonas aeruginosa” (mBio, 2021)", "key": {"AlgW-K287A": {"target": "T1, AlgW-K287A (Pseudomonas aeruginosa, UniProt Q9HVX1 30-389, K287A)", "T1 sequence": "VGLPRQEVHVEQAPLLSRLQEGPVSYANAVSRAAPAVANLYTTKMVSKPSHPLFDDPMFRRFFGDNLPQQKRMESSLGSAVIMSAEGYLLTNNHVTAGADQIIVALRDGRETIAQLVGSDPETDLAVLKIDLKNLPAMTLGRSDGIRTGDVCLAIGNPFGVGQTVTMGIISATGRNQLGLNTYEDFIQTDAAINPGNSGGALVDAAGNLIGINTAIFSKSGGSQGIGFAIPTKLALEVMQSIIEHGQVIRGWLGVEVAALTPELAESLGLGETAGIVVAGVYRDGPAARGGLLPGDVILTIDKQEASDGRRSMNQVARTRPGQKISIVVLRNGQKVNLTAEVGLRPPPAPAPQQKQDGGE", "assay": "cell-based or functional assay"}, "AlgW-R374A": {"target": "T2, AlgW-R374A (Pseudomonas aeruginosa, UniProt Q9HVX1 30-389, R374A)", "T2 sequence": "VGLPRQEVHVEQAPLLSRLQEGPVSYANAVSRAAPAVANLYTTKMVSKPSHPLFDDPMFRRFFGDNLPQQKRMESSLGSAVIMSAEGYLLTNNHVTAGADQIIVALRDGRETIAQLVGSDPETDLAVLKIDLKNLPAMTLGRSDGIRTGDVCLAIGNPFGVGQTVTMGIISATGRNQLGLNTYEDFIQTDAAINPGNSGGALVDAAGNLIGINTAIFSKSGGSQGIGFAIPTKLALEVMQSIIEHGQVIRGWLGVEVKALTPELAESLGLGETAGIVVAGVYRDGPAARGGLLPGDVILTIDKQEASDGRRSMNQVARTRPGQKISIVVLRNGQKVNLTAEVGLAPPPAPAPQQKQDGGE", "assay": "cell-based or functional assay"}, "AlgW-E151A": {"target": "T3, AlgW-E151A (Pseudomonas aeruginosa, UniProt Q9HVX1 30-389, E151A)", "T3 sequence": "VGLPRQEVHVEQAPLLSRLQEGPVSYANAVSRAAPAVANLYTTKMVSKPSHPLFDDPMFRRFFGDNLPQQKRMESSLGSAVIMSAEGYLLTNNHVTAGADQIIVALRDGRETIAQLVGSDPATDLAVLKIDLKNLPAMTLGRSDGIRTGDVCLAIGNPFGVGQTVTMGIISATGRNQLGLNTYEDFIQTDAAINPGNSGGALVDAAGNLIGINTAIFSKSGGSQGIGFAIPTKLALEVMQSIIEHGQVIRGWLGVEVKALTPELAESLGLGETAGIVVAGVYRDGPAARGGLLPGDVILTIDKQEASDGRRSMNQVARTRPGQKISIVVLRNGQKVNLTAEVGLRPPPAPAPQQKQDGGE", "assay": "cell-based or functional assay"}, "AlgW-Y212A": {"target": "T4, AlgW-Y212A (Pseudomonas aeruginosa, UniProt Q9HVX1 30-389, Y212A)", "T4 sequence": "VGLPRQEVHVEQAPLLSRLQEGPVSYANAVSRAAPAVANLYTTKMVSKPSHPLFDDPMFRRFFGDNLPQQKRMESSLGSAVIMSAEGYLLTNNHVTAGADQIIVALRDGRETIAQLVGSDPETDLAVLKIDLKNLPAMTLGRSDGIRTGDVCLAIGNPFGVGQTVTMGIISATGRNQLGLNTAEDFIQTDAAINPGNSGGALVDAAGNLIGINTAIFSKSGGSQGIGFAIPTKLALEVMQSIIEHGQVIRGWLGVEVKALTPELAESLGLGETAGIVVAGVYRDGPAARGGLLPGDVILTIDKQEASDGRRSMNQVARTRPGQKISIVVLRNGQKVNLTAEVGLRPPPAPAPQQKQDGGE", "assay": "cell-based or functional assay"}, "[1]": {"target": "T5, soluble AlgW (residues 30 to 389, without the N-terminal transmembrane segments) (Pseudomonas aeruginosa, UniProt Q9HVX1 30-389)", "T5 sequence": "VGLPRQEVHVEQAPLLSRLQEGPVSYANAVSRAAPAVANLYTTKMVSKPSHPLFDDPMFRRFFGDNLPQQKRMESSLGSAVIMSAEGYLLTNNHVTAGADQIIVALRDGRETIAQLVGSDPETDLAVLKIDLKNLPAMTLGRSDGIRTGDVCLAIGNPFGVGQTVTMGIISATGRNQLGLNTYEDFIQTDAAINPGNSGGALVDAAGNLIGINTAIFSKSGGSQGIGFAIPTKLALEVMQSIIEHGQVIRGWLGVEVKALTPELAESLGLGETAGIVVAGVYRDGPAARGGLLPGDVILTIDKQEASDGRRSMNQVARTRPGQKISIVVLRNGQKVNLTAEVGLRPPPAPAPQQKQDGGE", "assay": "cell-based or functional assay"}, "[2]": {"target": "T6, AlgWS227A (inactive mutant of the periplasmic soluble domain of AlgW, for crystallization) (Pseudomonas aeruginosa, UniProt Q9HVX1 52-389, S227A)", "T6 construct": "AlgW of Pseudomonas aeruginosa, residues 52-389 (construct for crystallization), catalytic serine S227 changed to alanine; source: E. coli BL21(DE3), purified (Ni-NTA, Superdex-75 SEC)", "T6 sequence": "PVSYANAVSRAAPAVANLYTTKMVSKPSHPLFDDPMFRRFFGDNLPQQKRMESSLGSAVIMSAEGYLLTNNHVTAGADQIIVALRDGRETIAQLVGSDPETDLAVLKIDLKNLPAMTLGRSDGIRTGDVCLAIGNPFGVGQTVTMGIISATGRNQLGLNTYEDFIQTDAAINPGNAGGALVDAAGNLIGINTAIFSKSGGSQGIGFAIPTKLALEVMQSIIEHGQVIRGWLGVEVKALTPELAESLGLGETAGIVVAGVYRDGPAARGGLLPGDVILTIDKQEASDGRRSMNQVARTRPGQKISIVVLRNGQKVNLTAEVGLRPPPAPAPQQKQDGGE", "assay": "crystal structure; protein mixed with peptide activator (tripeptide WVF or decapeptide …) prior to crystallization; hanging-drop vapor diffusion at 18°C; molecular replacement", "conditions": "both partners purified"}}}
{"binder": "SVRDELRWVF (C-terminal decapeptide of the periplasmic protein MucE of Pseudomonas aeruginosa; also called C-terminal decapeptide of MucE)", "note": "[decapeptide SVRDELRWVF (MucE C-terminal tail)]", "values": [{"measurement": "half-maximal activation concentration of the peptide activator (cleavage of Abz-VLAG-pNA)", "setting": "AlgW-K287A", "value": 6.53, "unit": "μM"}, {"measurement": "maximal cleavage activity of peptide-activated AlgW (Abz-VLAG-pNA)", "setting": "AlgW-K287A", "value": 49.4, "unit": "μM min^−1"}, {"measurement": "maximal cleavage activity of peptide-activated AlgW (Abz-VLAG-pNA)", "setting": "AlgW-R374A", "value": 5.45, "unit": "μM min^−1"}, {"measurement": "half-maximal activation concentration of the peptide activator (cleavage of Abz-VLAG-pNA)", "setting": "AlgW-E151A", "value": 2.99, "unit": "μM"}, {"measurement": "half-maximal activation concentration of the peptide activator (cleavage of Abz-VLAG-pNA)", "setting": "AlgW-Y212A", "value": 2.12, "unit": "μM"}, {"measurement": "half-maximal activation concentration of the peptide activator (cleavage of Abz-VLAG-pNA)", "setting": "[1]", "value": 2.02, "unit": "μM"}, {"measurement": "maximal cleavage activity of peptide-activated AlgW (Abz-VLAG-pNA)", "setting": "[1]", "value": 165, "unit": "μM min^−1"}, {"measurement": "binding result", "setting": "[2]", "value": "binds"}]}
